Numbering of substitutions follows the chain as printed. Names and notes keep the numbering of the source.
B1: Fe(III) BP E203C-acrylodan (conjugate, UniProt P35755 24-332, looked up, variant E203C)
Iron-utilization periplasmic …: DITVYNGQHKEAATAVAKAFEQETGIKVTLNSGKSEQLAGQLKEEGDKTPADVFYTEQTATFADLSEAGLLAPISEQTIQQTAQKGVPLAPKKDWIALSGRSRVVVYDHTKLSEKDMEKSVLDYATPKWKGKIGYVSTSGAFLEQVVALSKMKGDKVALNWLKGLKENGKLYAKNSVALQAVENGEVPAALINNYYWYNLAKCKGVENLKSRLYFVRHQDPGALVSYSGAAVLKASKNQAEAQKFVDFLASKKGQEALVAARAEYPLRADVVSPFNLEPYEKLEAPVVSATTAQDKEHAIKLIEEAGLK
modifications: acrylodan label
B2: ribose BP L236C NBD (conjugate, UniProt P02925 26-296, looked up, variant L236C)
Ribose import binding protein …: KDTIALVVSTLNNPFFVSLKDGAQKEADKLGYNLVVLDSQNNPAKELANVQDLTVRGTKILLINPTDSDAVGNAVKMANQANIPVITLDRQATKGEVVSHIASDNVLGGKIAGDYIAKKAGEGAKVIELQGIAGTSAARERGEGFQQAVAAHKFNVLASQPADFDRIKGLNVMQNLLTAHPDVQAVFAQNDEMALGALRALQTAGKSDVMVVGFDGTPDGEKAVNDGKLAATIAQCPDQIGAKGVETADKVLKGEKVQAKYPVDLKLVVKQ
modifications: NBD label
B3: ribose BP T135C Acrylodan (conjugate, UniProt P02925 26-296, looked up, variant T135C)
Ribose import binding protein …: B2 Ribose import binding protein … with T135C, C236L
modifications: acrylodan conjugate
B4: ribose BP T135C Fluorescein (conjugate, UniProt P02925 26-296, looked up, variant T135C)
Ribose import binding protein …: B2 Ribose import binding protein … with T135C, C236L
modifications: fluorescein conjugate
B5: ribose BP T135C JPW4042 (conjugate, UniProt P02925 26-296, looked up, variant T135C)
Ribose import binding protein …: B2 Ribose import binding protein … with T135C, C236L
modifications: JPW4042 dye conjugate
B6: ribose BP L265C Acrylodan (conjugate, UniProt P02925 26-296, looked up, variant L265C)
Ribose import binding protein …: B2 Ribose import binding protein … with C236L, L265C
modifications: acrylodan conjugate
B7: ribose BP L265C JPW4045 (conjugate, UniProt P02925 26-296, looked up, variant L265C)
Ribose import binding protein …: B2 Ribose import binding protein … with C236L, L265C
modifications: JPW4045 label
B8: ribose BP L265C JPW4039 (conjugate, UniProt P02925 26-296, looked up, variant L265C)
Ribose import binding protein …: B2 Ribose import binding protein … with C236L, L265C
modifications: JPW4039 label
B9: ribose BP L265C NBD (conjugate, UniProt P02925 26-296, looked up, variant L265C)
Ribose import binding protein …: B2 Ribose import binding protein … with C236L, L265C
modifications: NBD dye conjugate
B10: ribose BP L265C JPW4042 (conjugate, UniProt P02925 26-296, looked up, variant L265C)
Ribose import binding protein …: B2 Ribose import binding protein … with C236L, L265C
modifications: JPW4042 label
B11: ribose BP T135C NBD (conjugate, UniProt P02925 26-296, looked up, variant T135C)
Ribose import binding protein …: B2 Ribose import binding protein … with T135C, C236L
modifications: NBD dye conjugate
B12: Fe(III) BP E57D: Fe(III) BP with Glu57 substituted by Asp to weaken Fe(III) affinity (protein, UniProt P35755 24-332, looked up, variant E57D)
Iron-utilization periplasmic …: B1 Iron-utilization periplasmic … with E57D, C203E

Experiment: Fluorimetric titration of Fe(III) BP (E57D) conjugates with Fe(III) citrate
Type: binding
Settings: E57D background, read-out: Kd of Fe(III) BP conjugate
Method: (§1) Fluorimetry. All measurements were conducted with an SLM Aminco-Bowman series 2 fluorimeter, with sample stirring at 25° C. Fluorescence emission spectra were acquired with excitation and emission slit widths of 4 and 8 nm, respectively. Photomultiplier tube potential was maintained between 400 and 800 volts. Protein concentrations were in the range of 50 to 1000 nM. Fluorophore-specific excitation was at the following approximate wavelengths: tryptophan, 290 nm; acrylodan, 390 nm; fluorescein, 485 nm; pyrene, 340 nm; NBD and NBDE, 490 nm; JPW4039, 485 nm; JPW4042, 470 nm; JPW4045, 470 nm.
Corrections were made for dilution of the protein and for background signal from buffer. Binding curves were fit to binding isotherms using equation 3 or 4, as appropriate.
Analyte affinity measurements. […] The emission wavelength monitored was that of maximum difference in intensity between the ligand-free and bound states. For each conjugate, fluorescence intensiometric observations were fit to a hyperbolic binding isotherm for a two-state model (Marvin et al., Proc. Natl. Acad. Sci. USA 94:4366-4371, 1997): […]

Molecule | Kd
B1 | ~138 µM

Experiment: Fluorescence emission spectra without and with saturating ligand (wavelength shift, ΔIstd, ΔRmax)
Settings: standard intensity change, unbound vs ligand-saturated
Method: as §1
Assessment of fluorescent biosensor function. Fluorescence emission spectra of bPBP-fluorophore conjugates were recorded in the absence and presence of saturating ligand concentrations. Spectral changes were characterized by four parameters: wavelength shift (the difference between the wavelengths of emission maximum in the unbound and ligand-saturated states), direction of intensity change (increase or decrease in intensity at the wavelengths of maximum emission in the two states), standard intensity change (ΔIstd), and standard ratiometric change (ΔR). ΔIstd is defined as the normalized intensity change relative to the average intensity, determined at the wavelength mid-point between the two emission maxima:
[formula] where λstd=(λmax, unbound+λmax, saturated)/2 and I1, I2 are the fluorescence intensities at λstd of each spectrum respectively (FIG. 4A). ΔR is defined in terms of two emission bands, A1 ([λ1, λ2]) and A2 ([λ3, λ4]) (FIG. 4B):
[formula] where ^∘A1, […] the areas in the absence of ligand, and ^∞A1, ^∞A2 the areas in the presence of saturating ligand. A computer program was used to enumerate ΔR for all possible pairs of wavelength bands in the two spectra, to identify the optimal sensing condition, defined as the maximum value of ΔR. Adjustable parameters of the algorithm, and their values used for ΔRmax quantities reported here, are: step size (2 nm), step width (10 nm), minimum integration area limit (fraction of total: 0.1), and maximum integration area limit (fraction of total: 1).

Molecule | ΔIstd
B2 | 0.11
B3 | 0.31
B4 | 0.18
B5 | 0.02
B6 | 0.20
B7 | 0.02
B8 | 0.01
B9 | 0.01
B10 | 0.91
B11 | 0.08

Same assay, conditions: standard ratiometric change, unbound vs ligand-saturated

Molecule | ΔRmax
B2 | 1.96
B3 | 6.26
B4 | 1.79
B5 | 0.35
B6 | 0.70
B7 | 0.12
B8 | 0.11
B9 | 0.13
B10 | 2.13
B11 | 0.22

Experiment: Fe(III) affinity of Fe(III) BP from competition with Fe(III) chelates / Fe(III) citrate
Type: binding
Settings: E57D mutation; assuming logK=10.25 for 1:1 Fe(III) citrate complex; unit inferred
Text: Family of biosensors. A set of eleven bPBPs with widely varying ligand-binding specificities was selected for engineering biosensor function (Table 2). All were from E. coli except Fe(III) BP, which is from Haemophilus influenzae. Binding specificities and affinities of these proteins for their respective ligands have been characterized (references in Table 2). […] Most of these bPBPs bind at most two or three related ligands with high affinity (micromolar or better). […] Measured ligand dissociation constants in these proteins are typically in the range of 0.1 to 1 μM.
Cysteine point mutations were introduced by the PCR overlap method (Ho et al., Gene 77:51-59, 1989). Mutant proteins typically expressed as well as the wild type protein. […] In the case of Fe(III) BP, all mutations were constructed in the E57D background. […] This permitted straightforward determination of Fe(III) affinity by direct titration with Fe(III) citrate at nanomolar concentrations of Fe(III) BP.

Molecule | Kd
B12 | ~0.03 µM
